Measured values: patent US20160113911A1, “METHODS AND COMPOSITIONS FOR THE TREATMENT OF CANCER” (THE GENERAL HOSPITAL CORPORATION, priority 2013, published 2016)

B1: 2A-R152W*: KDM4A mutation (protein, UniProt O75164 2-1064, looked up, variant R152W)
Lysine-specific demethylase 4A: ASESETLNPSARIMTFYPTMEEFRNFSRYIAYIESQGAHRAGLAKVVPPKEWKPRASYDDIDDLVIPAPIQQLVTGQSGLFTQYNIQKKAMTVREFRKIANSDKYCTPRYSEFEELERKYWKNLTFNPPIYGADVNGTLYEKHVDEWNIGWLRTILDLVEKESGITIEGVNTPYLYFGMWKTSFAWHTEDMDLYSINYLHFGEPKSWYSVPPEHGKRLERLAKGFFPGSAQSCEAFLRHKMTLISPLMLKKYGIPFDKVTQEAGEFMITFPYGYHAGFNHGFNCAESTNFATRRWIEYGKQAVLCSCRKDMVKISMDVFVRKFQPERYKLWKAGKDNTVIDHTLPTPEAAEFLKESELPPRAGNEEECPEEDMEGVEDGEEGDLKTSLAKHRIGTKRHRVCLEIPQEVSQSELFPKEDLSSEQYEMTECPAALAPVRPTHSSVRQVEDGLTFPDYSDSTEVKFEELKNVKLEEEDEEEEQAAAALDLSVNPASVGGRLVFSGSKKKSSSSLGSGSSRDSISSDSETSEPLSCRAQGQTGVLTVHSYAKGDGRVTVGEPCTRKKGSAARSFSERELAEVADEYMFSLEENKKSKGRRQPLSKLPRHHPLVLQECVSDDETSEQLTPEEEAEETEAWAKPLSQLWQNRPPNFEAEKEFNETMAQQAPHCAVCMIFQTYHQVEFGGFNQNCGNASDLAPQKQRTKPLIPEMCFTSTGCSTDINLSTPYLEEDGTSILVSCKKCSVRVHASCYGVPPAKASEDWMCSRCSANALEEDCCLCSLRGGALQRANDDRWVHVSCAVAILEARFVNIAERSPVDVSKIPLPRFKLKCIFCKKRRKRTAGCCVQCSHGRCPTAFHVSCAQAAGVMMQPDDWPFVVFITCFRHKIPNLERAKGALQSITAGQKVISKHKNGRFYQCEVVRLTTETFYEVNFDDGSFSDNLYPEDIVSQDCLQFGPPAEGEVVQVRWTDGQVYGAKFVASHPIQMYQVEFEDGSQLVVKRDDVYTLDEELPKRVKSRLSVASDMRFNEIFTEKEVKQEKKRQRVINSRYREDYIEPALYRAIME
B2: 2A-I87V: KDM4A mutation (protein)
chain: MASESETLNPSARIMTFYPTMEEFRNFSRYIAYIESQGAHRAGLAKVVPPKEWKPRASYDDIDDLVIPAPIQQLVTGQSGLFTQYNVQKKAMTVREFRKIANSDKYCTPRYSEFEELERKYWKNLTFNPPIYGADVNGTLYEKHVDEWNIGRLRTILDLVEKESGITIEGVNTPYLYFGMWKTSFAWHTEDMDLYSINYLHFGEPKSWYSVPPEHGKRLERLAKGFFPGSAQSCEAFLRHKMTLISPLMLKKYGIPFDKVTQEAGEFMITFPYGYHAGFNHGFNCAESTNFATRRWIEYGKQAVLCSCRKDMVKISMDVFVRKFQPERYKLWKAGKDNTVIDHTLPTPEAAEFLKESELPPRAGNEEECPEEDMEGVEDGEEGDLKTSLAKHRIGTKRHRVCLEIPQEVSQSELFPKEDLSSEQYEMTECPAALAPVRPTHSSVRQVEDGLTFPDYSDSTEVKFEELKNVKLEEEDEEEEQAAAALDLSVNPASVGGRLVFSGSKKKSSSSLGSGSSRDSISSDSETSEPLSCRAQGQTGVLTVHSYAKGDGRVTVGEPCTRKKGSAARSFSERELAEVADEYMFSLEENKKSKGRRQPLSKLPRHHPLVLQECVSDDETSEQLTPEEEAEETEAWAKPLSQLWQNRPPNFEAEKEFNETMAQQAPHCAVCMIFQTYHQVEFGGFNQNCGNASDLAPQKQRTKPLIPEMCFTSTGCSTDINLSTPYLEEDGTSILVSCKKCSVRVHASCYGVPPAKASEDWMCSRCSANALEEDCCLCSLRGGALQRANDDRWVHVSCAVAILEARFVNIAERSPVDVSKIPLPRFKLKCIFCKKRRKRTAGCCVQCSHGRCPTAFHVSCAQAAGVMMQPDDWPFVVFITCFRHKIPNLERAKGALQSITAGQKVISKHKNGRFYQCEVVRLTTETFYEVNFDDGSFSDNLYPEDIVSQDCLQFGPPAEGEVVQVRWTDGQVYGAKFVASHPIQMYQVEFEDGSQLVVKRDDVYTLDEELPKRVKSRLSVASDMRFNEIFTEKEVKQEKKRQRVINSRYREDYIEPALYRAIME
B3: 2A-V919M: KDM4A mutation (protein)
chain: MASESETLNPSARIMTFYPTMEEFRNFSRYIAYIESQGAHRAGLAKVVPPKEWKPRASYDDIDDLVIPAPIQQLVTGQSGLFTQYNIQKKAMTVREFRKIANSDKYCTPRYSEFEELERKYWKNLTFNPPIYGADVNGTLYEKHVDEWNIGRLRTILDLVEKESGITIEGVNTPYLYFGMWKTSFAWHTEDMDLYSINYLHFGEPKSWYSVPPEHGKRLERLAKGFFPGSAQSCEAFLRHKMTLISPLMLKKYGIPFDKVTQEAGEFMITFPYGYHAGFNHGFNCAESTNFATRRWIEYGKQAVLCSCRKDMVKISMDVFVRKFQPERYKLWKAGKDNTVIDHTLPTPEAAEFLKESELPPRAGNEEECPEEDMEGVEDGEEGDLKTSLAKHRIGTKRHRVCLEIPQEVSQSELFPKEDLSSEQYEMTECPAALAPVRPTHSSVRQVEDGLTFPDYSDSTEVKFEELKNVKLEEEDEEEEQAAAALDLSVNPASVGGRLVFSGSKKKSSSSLGSGSSRDSISSDSETSEPLSCRAQGQTGVLTVHSYAKGDGRVTVGEPCTRKKGSAARSFSERELAEVADEYMFSLEENKKSKGRRQPLSKLPRHHPLVLQECVSDDETSEQLTPEEEAEETEAWAKPLSQLWQNRPPNFEAEKEFNETMAQQAPHCAVCMIFQTYHQVEFGGFNQNCGNASDLAPQKQRTKPLIPEMCFTSTGCSTDINLSTPYLEEDGTSILVSCKKCSVRVHASCYGVPPAKASEDWMCSRCSANALEEDCCLCSLRGGALQRANDDRWVHVSCAVAILEARFVNIAERSPVDVSKIPLPRFKLKCIFCKKRRKRTAGCCVQCSHGRCPTAFHVSCAQAAGVMMQPDDWPFVVFITCFRHKIPNLERAKGALQSITAGQKVISKHKNGRFYQCEMVRLTTETFYEVNFDDGSFSDNLYPEDIVSQDCLQFGPPAEGEVVQVRWTDGQVYGAKFVASHPIQMYQVEFEDGSQLVVKRDDVYTLDEELPKRVKSRLSVASDMRFNEIFTEKEVKQEKKRQRVINSRYREDYIEPALYRAIME
B4: 2A-E113K: KDM4A mutation (protein)
chain: MASESETLNPSARIMTFYPTMEEFRNFSRYIAYIESQGAHRAGLAKVVPPKEWKPRASYDDIDDLVIPAPIQQLVTGQSGLFTQYNIQKKAMTVREFRKIANSDKYCTPRYSKFEELERKYWKNLTFNPPIYGADVNGTLYEKHVDEWNIGRLRTILDLVEKESGITIEGVNTPYLYFGMWKTSFAWHTEDMDLYSINYLHFGEPKSWYSVPPEHGKRLERLAKGFFPGSAQSCEAFLRHKMTLISPLMLKKYGIPFDKVTQEAGEFMITFPYGYHAGFNHGFNCAESTNFATRRWIEYGKQAVLCSCRKDMVKISMDVFVRKFQPERYKLWKAGKDNTVIDHTLPTPEAAEFLKESELPPRAGNEEECPEEDMEGVEDGEEGDLKTSLAKHRIGTKRHRVCLEIPQEVSQSELFPKEDLSSEQYEMTECPAALAPVRPTHSSVRQVEDGLTFPDYSDSTEVKFEELKNVKLEEEDEEEEQAAAALDLSVNPASVGGRLVFSGSKKKSSSSLGSGSSRDSISSDSETSEPLSCRAQGQTGVLTVHSYAKGDGRVTVGEPCTRKKGSAARSFSERELAEVADEYMFSLEENKKSKGRRQPLSKLPRHHPLVLQECVSDDETSEQLTPEEEAEETEAWAKPLSQLWQNRPPNFEAEKEFNETMAQQAPHCAVCMIFQTYHQVEFGGFNQNCGNASDLAPQKQRTKPLIPEMCFTSTGCSTDINLSTPYLEEDGTSILVSCKKCSVRVHASCYGVPPAKASEDWMCSRCSANALEEDCCLCSLRGGALQRANDDRWVHVSCAVAILEARFVNIAERSPVDVSKIPLPRFKLKCIFCKKRRKRTAGCCVQCSHGRCPTAFHVSCAQAAGVMMQPDDWPFVVFITCFRHKIPNLERAKGALQSITAGQKVISKHKNGRFYQCEVVRLTTETFYEVNFDDGSFSDNLYPEDIVSQDCLQFGPPAEGEVVQVRWTDGQVYGAKFVASHPIQMYQVEFEDGSQLVVKRDDVYTLDEELPKRVKSRLSVASDMRFNEIFTEKEVKQEKKRQRVINSRYREDYIEPALYRAIME
B5: 2A-K123I: KDM4A mutation (protein)
chain: MASESETLNPSARIMTFYPTMEEFRNFSRYIAYIESQGAHRAGLAKVVPPKEWKPRASYDDIDDLVIPAPIQQLVTGQSGLFTQYNIQKKAMTVREFRKIANSDKYCTPRYSEFEELERKYWINLTFNPPIYGADVNGTLYEKHVDEWNIGRLRTILDLVEKESGITIEGVNTPYLYFGMWKTSFAWHTEDMDLYSINYLHFGEPKSWYSVPPEHGKRLERLAKGFFPGSAQSCEAFLRHKMTLISPLMLKKYGIPFDKVTQEAGEFMITFPYGYHAGFNHGFNCAESTNFATRRWIEYGKQAVLCSCRKDMVKISMDVFVRKFQPERYKLWKAGKDNTVIDHTLPTPEAAEFLKESELPPRAGNEEECPEEDMEGVEDGEEGDLKTSLAKHRIGTKRHRVCLEIPQEVSQSELFPKEDLSSEQYEMTECPAALAPVRPTHSSVRQVEDGLTFPDYSDSTEVKFEELKNVKLEEEDEEEEQAAAALDLSVNPASVGGRLVFSGSKKKSSSSLGSGSSRDSISSDSETSEPLSCRAQGQTGVLTVHSYAKGDGRVTVGEPCTRKKGSAARSFSERELAEVADEYMFSLEENKKSKGRRQPLSKLPRHHPLVLQECVSDDETSEQLTPEEEAEETEAWAKPLSQLWQNRPPNFEAEKEFNETMAQQAPHCAVCMIFQTYHQVEFGGFNQNCGNASDLAPQKQRTKPLIPEMCFTSTGCSTDINLSTPYLEEDGTSILVSCKKCSVRVHASCYGVPPAKASEDWMCSRCSANALEEDCCLCSLRGGALQRANDDRWVHVSCAVAILEARFVNIAERSPVDVSKIPLPRFKLKCIFCKKRRKRTAGCCVQCSHGRCPTAFHVSCAQAAGVMMQPDDWPFVVFITCFRHKIPNLERAKGALQSITAGQKVISKHKNGRFYQCEVVRLTTETFYEVNFDDGSFSDNLYPEDIVSQDCLQFGPPAEGEVVQVRWTDGQVYGAKFVASHPIQMYQVEFEDGSQLVVKRDDVYTLDEELPKRVKSRLSVASDMRFNEIFTEKEVKQEKKRQRVINSRYREDYIEPALYRAIME

Columns and labels:
[1] = system: H3K36me3; test: H3K36 demethylase activity of KDM4A variants in transfected cells (immunofluorescence); format: cell-based; set-up: key: + indicates active; − indicates inactive; +/− indicates partial acitivty; conditions: KDM4A mutations
Experimental: The indicated NHF-tagged KDM4A deletion constructs were transfected into RPE cells grown on coverslips in 10 cm dishes using X-tremeGENE 9™ DNA transfection reagent (Roche). H3K36me3 and subcellular localization were assayed by examining transfected cells (positive for HA staining; HA.11 Covance) following fixation in 3.7% PFA in PBS (Whetstine et al., 2006).
All immunofluorescence experiments were performed as in (Black et al., 2013). For the localization experiment a minimum of 50 cells were blinded and scored. For the catalytic activity, cells overexpressing a high level of KDM4A WT or SNP-A482 were analyzed in a non quantitative manner.

[2] = system: H3K9me3; test: H3K9 demethylase activity of KDM4 variants in transfected cells; format: cell-based; set-up: key: + indicates active; − indicates inactive; +/− indicates partial acitivty; conditions: KDM4A mutations

| Molecule | H3k36 Demethylase Activity [1] | H3k9 Demethylase Activity [2] |
| --- | --- | --- |
| B1 | + | + |
| B2 | + | + |
| B3 | + |  |
| B4 | + | +/− |
| B5 | + |  |
